Experimental findings from publication PMC8939814 are described below.

The assay has as its target CXCR2 (human) (UniProt P25025).
UniProt P25025, sequence (P25025 whole entry): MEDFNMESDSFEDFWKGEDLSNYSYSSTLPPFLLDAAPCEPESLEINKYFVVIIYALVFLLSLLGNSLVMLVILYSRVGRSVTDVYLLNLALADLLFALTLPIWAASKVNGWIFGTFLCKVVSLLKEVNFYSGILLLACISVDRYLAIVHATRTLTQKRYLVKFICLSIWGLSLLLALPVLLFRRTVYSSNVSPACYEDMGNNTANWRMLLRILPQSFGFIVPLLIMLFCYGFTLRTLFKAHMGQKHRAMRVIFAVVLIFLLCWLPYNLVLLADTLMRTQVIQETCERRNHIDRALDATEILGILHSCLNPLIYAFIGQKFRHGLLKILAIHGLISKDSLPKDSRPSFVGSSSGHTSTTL

In turn, “vCXCL1GT5, the non-ELR CXC chemokine encoded by HCMV UL146 genotype 5 (Davis strain), wild type (1–97) (ligand)” yielded an IP accumulation (G protein signaling, Gqi4myr) in transfected COS-7 cells, agonism at 1 μM (% of the maximal activity of CXCL8) of 60. Turning to “vCXCL1_(GT5 (4–97)), N-terminally truncated vCXCL1GT5 (domain or fragment)”, the IP accumulation (G protein signaling, Gqi4myr) in transfected COS-7 cells, agonism at 1 μM (% of the efficacy of CXCL8 on CXCR2) was found to be 31. “vCXCL1_(GT5 (6–97)), N-terminally truncated vCXCL1GT5 (domain or fragment)”: the IP accumulation (G protein signaling, Gqi4myr) in transfected COS-7 cells, agonism at 1 μM (% of the efficacy of CXCL8 on CXCR2) was 29.
